Source: US20180117174A1 (GANYMED PHARMACEUTICALS, published 2018)
Changes are numbered by the printed parent chain.

Legend:
[1] = molecular target: T1, human claudin 18 splice variant 2 (CLDN18.2) (human); assay: flow cytometry, HEK293 cells stably expressing CLDN18.2; APC-conjugated secondary antibody; binding assay 3
T1 construct: also called claudin 18 isotype 2
Protocol: (§1) 100 μl of the cell suspension per well (correspond to 2×10⁵ cells/well) were transferred to a round bottom 96-well microtiter plate. […] The cells were centrifuged for 1 min at 1500 rpm and the supernatant was discarded. […] After incubation, 100 μl FACS buffer were added to each sample, the cells were centrifuged for 1 min at 1500 rpm and the supernatant was discarded. The washing step with FACS buffer was repeated twice. Finally, the cells were resuspended in 100 μl FACS buffer and binding was determined using a BD FACS Array Bioanalyzer.

[2] = molecular target: T1, human claudin 18 splice variant 2 …; assay: flow cytometry, HEK293 cells stably expressing CLDN18.2; APC-conjugated secondary antibody; binding assay 3; normalized to IMAB362
Protocol: as §1

[3] = molecular target: T1, human claudin 18 splice variant 2 …; assay: flow cytometry (Table 6); ProteinL-FITC detection
Protocol: as §1

[4] = molecular target: T1, human claudin 18 splice variant 2 …; assay: flow cytometry, HEK293 cells stably expressing CLDN18.2; ProteinL-FITC detection; binding assay 4
[5] = molecular target: T1, human claudin 18 splice variant 2 …; assay: flow cytometry, HEK293 cells stably expressing CLDN18.2; ProteinL-FITC detection; binding assay 4; normalized to IMAB362
Protocol: as §1

[6] = molecular target: T1, human claudin 18 splice variant 2 …; assay: cell-based or functional assay
[7] = molecular target: T1, human claudin 18 splice variant 2 …; assay: flow cytometry (Table 6); ProteinL-FITC detection; normalized to IMAB362
Protocol: as §1

[8] = molecular target: T1, human claudin 18 splice variant 2 …; assay: flow cytometry on BxPC-3~CLDN18.2 cells, second assay
[9] = molecular target: T1, human claudin 18 splice variant 2 …; assay: cell-based or functional assay; remark: listed apart in the source
[10] = molecular target: T1, human claudin 18 splice variant 2 …; assay: flow cytometry on BxPC-3~CLDN18.2 cells, antibody up to 20 µg/ml
Protocol: as §1

[11] = molecular target: T1, human claudin 18 splice variant 2 …; assay: flow cytometry on NUGC-4 10cE8 cells (endogenous CLDN18.2), second assay
[12] = molecular target: T1, human claudin 18 splice variant 2 …; assay: cell-based or functional assay; remark: listed apart in the source
[13] = molecular target: T1, human claudin 18 splice variant 2 …; assay: flow cytometry on NUGC-4 10cE8 cells (endogenous CLDN18.2), antibody up to 20 µg/ml
Protocol: as §1
Binding properties were tested at different antibody concentrations in a range of 0.1 to 20 μg/ml (FIG. 4, Table 8).

[14] = molecular target: T1, human claudin 18 splice variant 2 …; assay: flow cytometry on HEK293~CLDN18.2 cells, antibody up to 20 µg/ml
Protocol: Binding was analyzed by flow cytometry at antibody concentrations up to 20 μg/ml. Data points (n=2 replicates) are depicted as mean±SD.
as §1
The binding specificity was analyzed by flow cytometry using HEK293 transfectants engineered to overexpress human CLDN18.2 or the highly homologous protein human CLDN18.1.

[15] = molecular target: T1, human claudin 18 splice variant 2 …; assay: flow cytometry on NUGC-4 10cF7-5 sort 3a cells (endogenous CLDN18.2), second assay
[16] = molecular target: T1, human claudin 18 splice variant 2 …; assay: cell-based or functional assay; remark: listed apart in the source
[17] = molecular target: T1, human claudin 18 splice variant 2 …; assay: flow cytometry on NUGC-4 10cF7-5 sort 3a cells (endogenous CLDN18.2), antibody up to 20 µg/ml
Protocol: as §1

[18] = molecular target: T1, human claudin 18 splice variant 2 …; assay: flow cytometry on NCI-N87~CLDN18.2 cells, antibody up to 20 µg/ml
Protocol: as §1

[19] = molecular target: human claudin 18 splice variant 1 (CLDN18.1) (human, UniProt P56856 1-261); assay: flow cytometry, HEK293 cells stably expressing CLDN18.1 (column 'CLDN18.1 reactive')
[20] = molecular target: T1, human claudin 18 splice variant 2 …; assay: flow cytometry (Table 6); ProteinL-FITC detection; binding assay 2; normalized to IMAB362
[21] = molecular target: T1, human claudin 18 splice variant 2 …; assay: flow cytometry (Table 6); ProteinL-FITC detection; binding assay 2
Protocol: as §1
(§2) Antibodies marked with the same number (1 or 2) were tested in the same binding assay.

[22] = molecular target: T1, human claudin 18 splice variant 2 …; assay: flow cytometry (Table 6); APC-conjugated secondary antibody; binding assay 1; normalized to IMAB362
Protocol: as §1

[23] = molecular target: T1, human claudin 18 splice variant 2 …; assay: flow cytometry (Table 6); APC-conjugated secondary antibody; binding assay 1
Protocol: as §1, §2

B1: mu mAB362 (mouse IgG1) (antibody, V domains shown)
VH: QVQLQQPGAELVRPGASVKLSCKASGYTFTSYWINWVKQRPGQGLEWIGNIYPSDSYTNYNQKFKDKATLTVDKSSSTAYMQLSSPTSEDSAVYYCTRSWRGNSFDYWGQGTTLTVSS
VL: DIVMTQSPSSLTVTAGEKVTMSCKSSQSLLNSGNQKNYLTWYQQKPGQPPKLLIYWASTRESGVPDRFTGSGSGTDFTLTISSVQAEDLAVYYCQNDYSYPFTFGSGTKLEIK
notes: also called mu muAB362 (IgG1)
- EC50 [1]: 2.24 µg/mL
- Max. binding [MFI] [1]: 8830 MFI
- EC50 normalized [%] [2]: 343%
- Max. binding normalized [%] [2]: 111%
- EC50 [3]: 0.654 µg/mL
- EC50 [4]: 4.29 µg/mL
- Max. binding [MFI] [4]: 5910 MFI
- EC50 normalized [%] [5]: 345%
- Max. binding normalized [%] [5]: 111%
- Cell viability EC50 [%] normalized to IMAB362, Fab-ZAP endocytosis assay [6]: 17%
- Cell viability EC50 [ng/ml], Fab-ZAP endocytosis assay on HEK293~CLDN18.2 cells [6]: 2.2 ng/mL
- Max. viability reduction normalized [%], Fab-ZAP endocytosis assay [6]: 66%
- EC50 normalized [%] [7]: 53%

B2: mu mAB362 (mouse IgG2a) (antibody, V domains shown)
VH: B1 VH
VL: B1 VL
notes: Mouse IgG2a form of mu mAB362; also called mu muAB362 (IgG2a)
- EC50 [3]: 4.29 µg/mL
- EC50 [4]: 0.654 µg/mL
- Max. binding [MFI] [4]: 4880 MFI
- EC50 normalized [%] [5]: 53%
- Cell viability EC50 [%] normalized to IMAB362, Fab-ZAP endocytosis assay [6]: 231%
- Cell viability EC50 [ng/ml], Fab-ZAP endocytosis assay on HEK293~CLDN18.2 cells [6]: ~30 ng/mL
- Max. viability reduction normalized [%], Fab-ZAP endocytosis assay [6]: 66%
- EC50 normalized [%] [7]: 345%

B3: IMAB362-DM4 (antibody, human IgG1, kappa, V domains shown)
VH: B1 VH
VL: DIVMTQSPSSLTVTAGEKVTMSCKSSQSLLNSGNQKNYLTWYQQKPGQPPKLLIYWASTRESGVPDRFTGSGSGTDFTLTISSVQAEDLAVYYCQNDYSYPFTFGSGTKLEIKR
modifications: DM4 coupled via SPDB linker to primary amines (lysine side chains or N-terminus) of the antibody; drug to antibody ratio 3.2; sites not stated
- EC50 [8]: 0.425 µg/mL
- CDC EC50 [ng/ml], KATO-III FGF-BP#12 adM p3151#25 cells [9]: 6440 ng/mL
- CDC EC50 [ng/ml], NUGC-4 10cF7_5 sort3a p3151#10 cells [9]: 15800 ng/mL
- EC50 [10]: 0.507 µg/mL
- EC50 [11]: 7.49 µg/mL
- EC50 [ng/ml] of reduction of cell viability (XTT, 72 h), BxPC-3~CLDN18.2 cells [12]: 43 ng/mL
- EC50 [ng/ml] of reduction of cell viability (XTT, 72 h), BxPC-3~CLDN18.2 cells, second assay [12]: 54 ng/mL
- EC50 [ng/ml] of reduction of cell viability (XTT, 72 h), NCI-N87~CLDN18.2 cells [12]: 75 ng/mL
- EC50 [ng/ml] of reduction of cell viability (XTT, 72 h), NUGC-4 10cE8 cells [12]: 372 ng/mL
- EC50 [ng/ml] of reduction of cell viability (XTT, 72 h), NUGC-4 10cF7-5 sort 3a cells [12]: 155 ng/mL
- EC50 [13]: 3.05 µg/mL
- EC50 [14]: 1.47 µg/mL
- EC50 [15]: 3.91 µg/mL
- ADCC EC50 [ng/ml], NUGC-4 10cF7_5 sort3a p3151#10 cells, PBMC of Donor 1 [16]: 1150 ng/mL
- ADCC EC50 [ng/ml], NUGC-4 10cF7_5 sort3a p3151#10 cells, PBMC of Donor 2 [16]: 217 ng/mL
- EC50 [17]: 2.6 µg/mL
- EC50 [18]: 0.274 µg/mL

B4: mu mAB294 (antibody, V domains shown)
VH: QIQLVQSGPELKKPGETVKISCKASGYTFTNYGMNWVKQAPGKGLKWMGWINTNTGEPTYAEEFKGRFAFSLETSASTAYLQINNLKNEDTATYFCARLGFGNAMDYWGQGTSVTVSS
VL: B1 VL with F102L, S106A, I112L
notes: Tied by its number
- EC50 [1]: 0.348 µg/mL
- Max. binding [MFI] [1]: 989 MFI
- binding result [19]: no binding
- EC50 normalized [%] [2]: 53%
- Max. binding normalized [%] [2]: 12%

B5: IMAB362-vcMMAE (antibody, human IgG1, kappa, V domains shown)
VH: B1 VH
VL: B3 VL
modifications: vcMMAE (Val-Cit linker) coupled to sulfhydryl groups set on lysine amines with 2-iminothiolane; drug to antibody ratio 4.5; sites not stated
notes: also called MMAE-conjugated IMAB362
- EC50 [8]: 0.261 µg/mL
- CDC EC50 [ng/ml], KATO-III FGF-BP#12 adM p3151#25 cells [9]: 7240 ng/mL
- CDC EC50 [ng/ml], NUGC-4 10cF7_5 sort3a p3151#10 cells [9]: 28300 ng/mL
- EC50 [10]: 0.183 µg/mL
- EC50 [11]: 5.46 µg/mL
- EC50 [ng/ml] of reduction of cell viability (XTT, 72 h), BxPC-3~CLDN18.2 cells [12]: 48 ng/mL
- EC50 [ng/ml] of reduction of cell viability (XTT, 72 h), BxPC-3~CLDN18.2 cells, second assay [12]: 43 ng/mL
- EC50 [ng/ml] of reduction of cell viability (XTT, 72 h), NCI-N87~CLDN18.2 cells, second assay [12]: 180 ng/mL
- EC50 [ng/ml] of reduction of cell viability (XTT, 72 h), NUGC-4 10cE8 cells [12]: 631 ng/mL
- EC50 [ng/ml] of reduction of cell viability (XTT, 72 h), NUGC-4 10cF7-5 sort 3a cells [12]: 338 ng/mL
- EC50 [13]: 2.83 µg/mL
- EC50 [14]: 1.59 µg/mL
- EC50 [15]: 4.05 µg/mL
- ADCC EC50 [ng/ml], NUGC-4 10cF7_5 sort3a p3151#10 cells, PBMC of Donor 1 [16]: 1080 ng/mL
- ADCC EC50 [ng/ml], NUGC-4 10cF7_5 sort3a p3151#10 cells, PBMC of Donor 2 [16]: 275 ng/mL
- EC50 [17]: 2.52 µg/mL
- EC50 [18]: 0.103 µg/mL

B6: chim mAB294 (antibody, V domains shown)
VH: B4 VH
VL: B3 VL with F102L, S106A, I112L
- EC50 normalized [%] [20]: 459%
- Cell viability EC50 [%] normalized to IMAB362, Fab-ZAP endocytosis assay [6]: 91%
- Cell viability EC50 [ng/ml], Fab-ZAP endocytosis assay on HEK293~CLDN18.2 cells [6]: 10 ng/mL
- Max. viability reduction normalized [%], Fab-ZAP endocytosis assay [6]: 86%
- EC50 [21]: 5.7 µg/mL

B7: chim mAB308 (antibody, V domains shown)
VH: QVQLQQSGPELVKPGASVKMSCKASGYTFTDYVISWVKQRTGQGLEWIGEIYPGSGSTYYNEKFKGKATLTADKSSNTAYMQLSSLTSEDSAVYFCARGVLLRAMDYWGQGTSVTVSS
VL: DIVMSQSPSSLAVSAGEKVTMSCKSSQSLLNSRTRKNYLAWYQQKPGQSPKLLIYWASTRESGVPDRFTGSGSGTDFTLTISSVQAEDLAVYYCKQSYNLYTFGGGTKLEIKR
- EC50 normalized [%] [22]: 3240%
- Max. binding normalized [%] [22]: 81%
- EC50 [23]: 18.9 µg/mL
- Max. binding [MFI] [23]: 15000 MFI

B8: chim mAB279 (antibody, V domains shown)
VH: QVQLQQSGAELARPGASVKLSCKASGYTFTDYYINWVKQRTGQGLEWIGEIYPGSGNTYYNEKFKGKATLTADKSSSTAYMQLSSLTSEDSAVYFCARSYGAFDYWGQGTTLTVSS
VL: DIVMTQSQKFMSTSVGDRVSITCKASQNVRTAVAWYQQKPGQSPKALIYLASNRHTGVPDRFTGSGSGTDFTLTISNVQSEDLADYFCLQHWNYPLTFGGGTKLEIKR
- EC50 normalized [%] [22]: 10300%
- Max. binding normalized [%] [22]: 24%
- EC50 [23]: 60 µg/mL
- Max. binding [MFI] [23]: 4390 MFI

B9: mu mAB279 (antibody, mouse IgG2a, V domains shown)
VH: B8 VH
VL: DIVMTQSQKFMSTSVGDRVSITCKASQNVRTAVAWYQQKPGQSPKALIYLASNRHTGVPDRFTGSGSGTDFTLTISNVQSEDLADYFCLQHWNYPLTFGGGTKLEIK
notes: mouse IgG2a kappa
- EC50 [1]: 0.027 µg/mL
- Max. binding [MFI] [1]: 118 MFI
- binding result [19]: no binding
- EC50 normalized [%] [2]: 4%
- Max. binding normalized [%] [2]: 1%

B10: chim mAB62 (antibody, V domains shown)
VH: QVQLQQSGAELMKPGASVKISCKATGYTFSSYWIEWVKQRPGHGLEWIGEILPGSGSTNYNEKFKGKATFTADTSSNTAYMQLSSLTSEDSAVYYCARYDYPWFAYWGQGTLVTVSA
VL: QIVLTQSPAIMSASPGEKVTITCSASSSVSYMHWFQQKPGTSPKLWIYSTSNLASGVPARFSGSGSGTSYSLTISRMEAEDAATYYCQQRSSYPPTFGGGTKLEIKR
- EC50 normalized [%] [22]: 5540%
- Max. binding normalized [%] [22]: 22%
- EC50 [23]: 32.3 µg/mL
- Max. binding [MFI] [23]: 4080 MFI

B11: mu mAB62 (antibody, mouse IgG2a, V domains shown)
VH: B10 VH
VL: QIVLTQSPAIMSASPGEKVTITCSASSSVSYMHWFQQKPGTSPKLWIYSTSNLASGVPARFSGSGSGTSYSLTISRMEAEDAATYYCQQRSSYPPTFGGGTKLEIK
notes: mouse IgG2a kappa
- EC50 [1]: 27.9 µg/mL
- Max. binding [MFI] [1]: 2800 MFI
- binding result [19]: no binding
- EC50 normalized [%] [2]: 4280%
- Max. binding normalized [%] [2]: 35%
